From US20250346657A1 (INTERVET, published 2025)

Target: T1, feline NGF (feline, UniProt A0ABI7YSK6 122-241)
T1 construct: domain: C-terminal portion; also called fNGF; feline beta-NGF
Test: ELISA, feline NGF

B1: human-feline chimeric Fulranumab (antibody)
heavy: EVQLVESGGGLVQPGGSLRLSCAASGFTLRSYSMNWVRQAPGKGLEWVSYISRSSHTIFYADSVKGRFTISRDNAKNSLYLQMDSLRDEDTAMYYCARVYSSGWHVSDYFDYWGQGILVTVSSASTTAPSVFPLAPSCGTTSGATVALACLVLGYFPEPVTVSWNSGALTSGVHTFPAVLQASGLYSLSSMVTVPSSRWLSDTFTCNVAHPPSNTKVDKTVRKTDHPPGPKPCDCPKCPPPEMLGGPSIFIFPPKPKDTLSISRTPEVTCLVVALGPDDSDVQITWFVDNTQVYTAKTSPREEQFASTYRVVSVLPILHQDWLKGKEFKCKVNSKSLPSPIERTISKAKGQPHEPQVYVLPPAQEELSRNKVSVTCLIKSFHPPDIAVEWEITGQPEPENNYRTTPPQLDSDGTYFVYSKLSVDRSHWQRGNTYTCSVSHEALHSHHTQKSLTQSPGK
light: AIQLTQSPSSLSASVGDRVTITCRASQGISSALAWYQQKPGKAPKLLIYDASSLESGVPSRFSGSGSGTDFTLTISSLQPEDFATYYCQQFNSYPLTFGGGTKVEIKRSDAQPSVFLFQPSLDELHTGSASIVCILNDFYPKEVNVKWKVDGVVQNKGIQESTTEQNSKDSTYSLSSTLTMSSTEYQSHEKFSCEVTHKSLASTLVKSFNRSECQRE
notes: Chains from the 'List of heavy and light chains to make human-feline chimeric and felinized antibodies'; also called Ful Chimeric; Ful Chim
Q: How did the EC50 turn out when B1 was run?
A: 18 to 19 pM
